We go through seven molecules from patent US20200131274A1 (CRESCENDO BIOLOGICS, published 2020).

Usually EC50 stands for the concentration needed to bring the measured effect to its halfway point. Low values mean a more potent agent, high ones a less potent agent.

Experiment [1] deals with T1, human prostate specific membrane antigen (PSMA), full-length, on cells (human, UniProt Q04609 1-750). In words: cell-based or functional assay.
Experiment [2] deals with T1, human prostate specific membrane …. The experiment in a line: cell-based or functional assay. This is another data set of the same source.
The target is the same in experiment [3]. The experiment in a line: FMAT direct cell binding, LNCap cells.
Method: (§1) For titrations, VH purified via the terminal His tag were serially diluted in FMAT assay buffer then binding was measured as described above (FIG. 1).
The target is the same in experiment [4]. In words: FMAT direct cell binding, DU145 PSMA cells.
Method: as §1
Experiment [5] addresses T2, cynomolgus PSMA, full-length, on CHO cells (cynomolgus, UniProt A0A2K5VNZ0 1-750).
T2 construct: whole, on cells; also called cynoPSMA; cyno PSMA
In words: FMAT direct cell binding, CHO cyno PSMA cells.
Method: as §1

Experiment [6] has as its target T1, human prostate specific membrane …. In words: FMAT direct cell binding, CHO human PSMA cells.
Method: as §1

T1 sequence (Q04609 whole entry): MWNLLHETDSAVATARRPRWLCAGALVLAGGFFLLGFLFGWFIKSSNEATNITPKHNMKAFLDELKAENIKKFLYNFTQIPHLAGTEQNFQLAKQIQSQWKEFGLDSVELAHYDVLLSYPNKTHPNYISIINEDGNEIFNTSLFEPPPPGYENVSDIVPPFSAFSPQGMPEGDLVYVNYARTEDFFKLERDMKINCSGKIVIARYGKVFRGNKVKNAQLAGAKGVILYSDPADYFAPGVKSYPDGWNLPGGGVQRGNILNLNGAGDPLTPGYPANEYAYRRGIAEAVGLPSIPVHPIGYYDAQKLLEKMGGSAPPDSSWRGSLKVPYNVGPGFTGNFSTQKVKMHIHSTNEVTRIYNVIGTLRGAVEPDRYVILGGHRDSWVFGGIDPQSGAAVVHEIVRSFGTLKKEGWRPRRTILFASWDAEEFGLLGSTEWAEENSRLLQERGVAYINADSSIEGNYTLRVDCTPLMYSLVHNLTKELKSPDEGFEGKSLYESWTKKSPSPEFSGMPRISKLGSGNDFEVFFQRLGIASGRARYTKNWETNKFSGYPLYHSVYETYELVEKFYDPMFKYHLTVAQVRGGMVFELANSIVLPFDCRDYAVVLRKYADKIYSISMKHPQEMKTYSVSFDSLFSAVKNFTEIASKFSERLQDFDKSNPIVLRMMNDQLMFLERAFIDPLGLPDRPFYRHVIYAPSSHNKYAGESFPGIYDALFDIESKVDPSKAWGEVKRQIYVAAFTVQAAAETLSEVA

B1: HiPEG A-2-B-His6 val-cit-PAB-MMAE (bispecific antibody)
chain: EVQLVESGGGVVQPGRSLRLSCAASGFSFSGYGMHWVRQAPGKGLEWVAYISYDGSNKYYADSVKGRFTISRDNSKNTLYLQMNSLRAEDTAVYYCAKDPAWGLRLGESSSYDFDIWGQGTMVTVSSGGGGSGGGGSGGGGSGGGGSGGGGSGGGGSEVQLLESGGGLVQPGGSLRLSCAASGFSFSSYAMSWVRQAPGKGLEWVSSIGENDGTTDYADSVKGRFTISRDNSKSMLYLQMNSLRVEDTAVYYCVKDGVHWGQGTLVTVSSAAAHHHHHH
modifications: HiPEG val-cit-PAB-MMAE attached via the C-terminal His6-tag, DAR 1
Turning to B1, in experiment [1], the “IC50 Toxin (nM), DU145 PSMA cells, 48 h” value was 0.37 nM; the “Mean IC50, cytotoxicity on DU145 PSMA cells, 48 h” value (shortened to “Mean IC50, cytotoxicity”) stood at 0.37 nM; the “Mean Max % Cell kill, DU145 PSMA cells, 48 h” value (from here on “Mean Max % Cell kill”) was 78%. Besides, in experiment [2], the “IC50 (nM), cytotoxicity on DU145 PSMA cells, 72 h” value (“IC50 (nM), cytotoxicity” below) was determined as 0.29 nM and the “IC50 (toxin) nM, DU145 PSMA cells, 72 h” value was determined as 0.29 nM.

B2: single VH domain antibody 1.13 (VHH)
VHH: EVQLLESGGGLVQPGGSLRLSCAASGFSFSSYALSWVRQAPGKGLEWVSSIGENNHTTDYAADVKGRFTISRDNSKNTLYLQMNSLRVEDTAVYYCVKDGVHWGQGTLVTVSS
notes: Human single VH domain antibody (Humabody)
Consider B2, for which the EC50 stood at 0.0386 nM in experiment [3], 0.0456 nM in experiment [4], 0.115 nM in experiment [5] and 0.0513 nM in experiment [6].

B3: HiPEG B-His6 val-cit-PAB-MMAE (VHH)
VHH: EVQLLESGGGLVQPGGSLRLSCAASGFSFSSYAMSWVRQAPGKGLEWVSSIGENDGTTDYADSVKGRFTISRDNSKSMLYLQMNSLRVEDTAVYYCVKDGVHWGQGTLVTVSS
modifications: HiPEG val-cit-PAB-MMAE attached via the C-terminal His6-tag, DAR 0.9
In the case of B3, in experiment [1], the “IC50 Toxin (nM), DU145 PSMA cells, 48 h” value is 2.43 nM; the “Mean IC50, cytotoxicity” value came out at 2.7 nM; the “Mean Max % Cell kill” value is 73%. In experiment [2], the “IC50 (nM), cytotoxicity” value amounted to 4.1 nM and the “IC50 (toxin) nM, DU145 PSMA cells, 72 h” value was 3.69 nM.

B4: single VH domain antibody 2.14 (VHH)
VHH: EVQLVESGGGVVQPGRSLRLSCAASGFSFSGYGVHWVRQAPGKGLEWVAYISYDASNKYYADNVKGRFTISRDNSKNTLYLQMNSLRAEDTAVYYCAKDPAWGLRLGESSSYDFDIWGQGTMVTVSS
notes: Human single VH domain antibody (Humabody); C-terminal His tag, residues not tied
Turning to B4, the EC50 in experiment [3] worked out at 0.0332 nM; in experiment [4], 0.202 nM; in experiment [5], 0.427 nM; in experiment [6], 0.11 nM.

B5: HiPEG A-His6 val-cit-PAB-MMAE (VHH)
VHH: EVQLVESGGGVVQPGRSLRLSCAASGFSFSGYGMHWVRQAPGKGLEWVAYISYDGSNKYYADSVKGRFTISRDNSKNTLYLQMNSLRAEDTAVYYCAKDPAWGLRLGESSSYDFDIWGQGTMVTVSS
modifications: HiPEG val-cit-PAB-MMAE attached via the C-terminal His6-tag, DAR 1
In the case of B5, in experiment [1], the “IC50 Toxin (nM), DU145 PSMA cells, 48 h” value was determined as 1.16 nM; the “Mean IC50, cytotoxicity” value is 1.2 nM; the “Mean Max % Cell kill” value is 74%. Besides, in experiment [2], the “IC50 (nM), cytotoxicity” value was determined as 0.55 nM and the “IC50 (toxin) nM, DU145 PSMA cells, 72 h” value was 0.55 nM.

B6: single VH domain antibody 2.18 (VHH)
VHH: EVQLVESGGGVVQPGRSLRLSCAASGFSFSGYGQHWVRQAPGKGLEWVAYISYDASNKYYADNVKGRFTISRDNSKNTLYLQMNSLRAEDTAVYYCAKDPAWGLRLGESSSYDFDIWGQGTMVTVSS
notes: as for B4
Regarding B6, the EC50 was 0.0354 nM in experiment [3], 0.25 nM in experiment [4], 0.337 nM in experiment [5] and 0.104 nM in experiment [6].

B7: HiPEG B-1-A-His6 val-cit-PAB-MMAE (bispecific antibody)
chain: EVQLLESGGGLVQPGGSLRLSCAASGFSFSSYAMSWVRQAPGKGLEWVSSIGENDGTTDYADSVKGRFTISRDNSKSMLYLQMNSLRVEDTAVYYCVKDGVHWGQGTLVTVSSGGGGSGGGGSEVQLVESGGGVVQPGRSLRLSCAASGFSFSGYGMHWVRQAPGKGLEWVAYISYDGSNKYYADSVKGRFTISRDNSKNTLYLQMNSLRAEDTAVYYCAKDPAWGLRLGESSSYDFDIWGQGTMVTVSS
modifications: HiPEG val-cit-PAB-MMAE attached via the C-terminal His6-tag, DAR 1
As for B7, in experiment [1], the “IC50 Toxin (nM), DU145 PSMA cells, 48 h” value came out at 0.13 nM; the “Mean IC50, cytotoxicity” value came out at 0.13 nM; the “Mean Max % Cell kill” value stood at 79%. Further, in experiment [2], the “IC50 (nM), cytotoxicity” value worked out at 0.1 nM and the “IC50 (toxin) nM, DU145 PSMA cells, 72 h” value was 0.1 nM.
